Data set [1] concerns the molecule itself. The data set can be described thus: cryo-EM structure; inactive state: CaSR in GDN/CHS micelles with NPS-2143 (NAM), 1 mM CaCl2 and a 1.2 molar excess of NB-2D11.
Data set [2] concerns the target T1, CaSR ECD (extracellular domain of human calcium-sensing receptor) (Homo sapiens, UniProt P41180).
T1 construct: human calcium-sensing receptor (CaSR), extracellular domain (VFT domain and cysteine rich domain); crystal structures of CaSR ECD (PDB 5K5T, 5K5S; Geng et al., 2016) are cited but not tied to this construct
The data set can be described thus: SPR; Biacore T200; CaSR ECD coupled to the chip by amino-carboxyl coupling; nanobody flowed at a series of concentrations (30 ul/min, association 90 s, dissociation 220 s); 25 C; 20 mM HEPES pH 7.4, 150 mM NaCl, 0.05% Tween 20. To be noted: both partners purified. On the technique in general: SPR reads the build-up and loss of mass on a sensor chip optically.

T1 sequence (P41180 whole entry, looked up, the tested form may be a part): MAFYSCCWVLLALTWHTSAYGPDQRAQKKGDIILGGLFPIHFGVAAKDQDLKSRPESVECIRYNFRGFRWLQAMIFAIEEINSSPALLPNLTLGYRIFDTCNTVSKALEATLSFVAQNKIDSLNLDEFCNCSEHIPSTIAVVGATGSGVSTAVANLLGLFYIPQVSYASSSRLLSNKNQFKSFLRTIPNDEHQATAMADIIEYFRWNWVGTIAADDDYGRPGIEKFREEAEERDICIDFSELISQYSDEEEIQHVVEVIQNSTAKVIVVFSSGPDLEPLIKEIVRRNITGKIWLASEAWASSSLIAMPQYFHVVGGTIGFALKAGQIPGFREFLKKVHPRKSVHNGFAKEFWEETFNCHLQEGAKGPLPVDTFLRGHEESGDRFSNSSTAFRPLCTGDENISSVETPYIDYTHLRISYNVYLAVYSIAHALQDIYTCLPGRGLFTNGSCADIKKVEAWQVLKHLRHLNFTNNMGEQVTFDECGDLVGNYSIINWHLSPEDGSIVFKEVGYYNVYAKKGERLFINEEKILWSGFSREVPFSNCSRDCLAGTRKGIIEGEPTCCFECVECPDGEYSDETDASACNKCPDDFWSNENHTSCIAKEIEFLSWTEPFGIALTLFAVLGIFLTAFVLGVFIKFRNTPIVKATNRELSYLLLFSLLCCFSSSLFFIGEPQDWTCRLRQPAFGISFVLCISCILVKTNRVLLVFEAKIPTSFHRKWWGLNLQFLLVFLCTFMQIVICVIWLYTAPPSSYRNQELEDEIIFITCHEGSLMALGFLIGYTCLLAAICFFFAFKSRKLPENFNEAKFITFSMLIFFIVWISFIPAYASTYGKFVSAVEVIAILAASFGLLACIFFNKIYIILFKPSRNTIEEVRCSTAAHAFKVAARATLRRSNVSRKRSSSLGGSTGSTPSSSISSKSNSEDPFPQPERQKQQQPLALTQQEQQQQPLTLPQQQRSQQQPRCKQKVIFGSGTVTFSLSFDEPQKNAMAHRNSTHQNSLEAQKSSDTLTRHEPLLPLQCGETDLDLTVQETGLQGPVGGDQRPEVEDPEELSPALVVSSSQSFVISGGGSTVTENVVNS

B1: Human calcium-sensing receptor CaSR (1-870) with C-terminal Flag tag (receptor, UniProt P41180-1 20-870, looked up)
chain: YGPDQRAQKKGDIILGGLFPIHFGVAAKDQDLKSRPESVECIRYNFRGFRWLQAMIFAIEEINSSPALLPNLTLGYRIFDTCNTVSKALEATLSFVAQNKIDSLNLDEFCNCSEHIPSTIAVVGATGSGVSTAVANLLGLFYIPQVSYASSSRLLSNKNQFKSFLRTIPNDEHQATAMADIIEYFRWNWVGTIAADDDYGRPGIEKFREEAEERDICIDFSELISQYSDEEEIQHVVEVIQNSTAKVIVVFSSGPDLEPLIKEIVRRNITGKIWLASEAWASSSLIAMPQYFHVVGGTIGFALKAGQIPGFREFLKKVHPRKSVHNGFAKEFWEETFNCHLQEGAKGPLPVDTFLRGHEESGDRFSNSSTAFRPLCTGDENISSVETPYIDYTHLRISYNVYLAVYSIAHALQDIYTCLPGRGLFTNGSCADIKKVEAWQVLKHLRHLNFTNNMGEQVTFDECGDLVGNYSIINWHLSPEDGSIVFKEVGYYNVYAKKGERLFINEEKILWSGFSREVPFSNCSRDCLAGTRKGIIEGEPTCCFECVECPDGEYSDETDASACNKCPDDFWSNENHTSCIAKEIEFLSWTEPFGIALTLFAVLGIFLTAFVLGVFIKFRNTPIVKATNRELSYLLLFSLLCCFSSSLFFIGEPQDWTCRLRQPAFGISFVLCISCILVKTNRVLLVFEAKIPTSFHRKWWGLNLQFLLVFLCTFMQIVICVIWLYTAPPSSYRNQELEDEIIFITCHEGSLMALGFLIGYTCLLAAICFFFAFKSRKLPENFNEAKFITFSMLIFFIVWISFIPAYASTYGKFVSAVEVIAILAASFGLLACIFFNKIYIILFKPSRNTIE
notes: signal peptide in the construct; human calcium-sensing receptor (CaSR), residues 1-870, cDNA NM_000388.4; Flag printed as DYKDDDD; Cloned into a modified pEG BacMam vector; also called full-length CaSR; hCaSR; source: HEK293 GnTI- cells infected with baculovirus (BacMam), purified (anti-Flag M2, Mono Q, Superose 6) in GDN/CHS
On to B1, for which the binding result in data set [1] is listed as “binds”.

B2: NB-2D11 (camel nanobody) (VHH)
VHH: QVQLQESGGGSVQAGGSLRLSCAASGFPISTYDMGWFRQAPGKEREGVVGITDSFSIKYEDSVKGRFTISRDNAKNALYLQMNSLKPEDTGMYYCAAGDARWSLLLRAEQYNYWGQGTQVTVSS
notes: Cloned in pMECS with a PelB signal peptide; HA tag followed by 6x histidine tag at the C-terminus; Isolated from a phage display library of camels immunised with human CaSR; also called NB-D211; source: E. coli TOP10F' periplasm, purified (Ni-NTA, Superdex 75)
Broadly, the Kd is the concentration at which binding is half-saturated. As to B2, in data set [2], the Kd was 0.24 nM.

The values are drawn from publication PMC8476121, “Structural insights into the activation of human calcium-sensing receptor” (eLife, 2021).
